Measured values taken from patent publication US7183387 (Genentech, dated 2007).

T1: human FcγRIIA-R131 α subunit extracellular domain-His6-GST fusion (human, UniProt P12318 34-217)
T1 construct: ECD-6His-GST fusion made in 293 cells; also called FcγRIIA-Arg131; not shown: glutathione S transferase (GST)
T1 sequence: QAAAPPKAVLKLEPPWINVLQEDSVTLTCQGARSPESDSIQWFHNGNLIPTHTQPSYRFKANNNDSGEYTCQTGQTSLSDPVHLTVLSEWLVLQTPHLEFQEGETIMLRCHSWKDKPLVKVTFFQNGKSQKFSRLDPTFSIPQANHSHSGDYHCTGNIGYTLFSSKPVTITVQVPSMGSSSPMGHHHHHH


Key:
[1] = target: T2, human FcγRIIIA-V158 α subunit extracellular domain-His6-GST fusion (human, UniProt P08637 17-208); experiment: ELISA, IgG monomer, receptor coated
T2 construct: ECD-6His-GST fusion made in 293 cells; also called FcγRIIIA-Val158; not shown: glutathione S transferase (GST)

[2] = target: T2, human FcγRIIIA-V158 α subunit …; experiment: ELISA, IgG complex, receptor coated
[3] = target: T3, human FcγRIIIA-F158 α subunit extracellular domain-His6-GST fusion (human, UniProt P08637 17-208); experiment: ELISA, IgG complex, receptor coated
T3 construct: ECD-6His-GST fusion made in 293 cells; also called FcγRIIIA-Phe158; not shown: glutathione S transferase (GST)

[4] = target: T1, human FcγRIIA-R131 α subunit …; experiment: ELISA, IgG complex, receptor coated

T3 sequence (P08637 other isoform, or with tags, fused parts or gaps, form in doubt): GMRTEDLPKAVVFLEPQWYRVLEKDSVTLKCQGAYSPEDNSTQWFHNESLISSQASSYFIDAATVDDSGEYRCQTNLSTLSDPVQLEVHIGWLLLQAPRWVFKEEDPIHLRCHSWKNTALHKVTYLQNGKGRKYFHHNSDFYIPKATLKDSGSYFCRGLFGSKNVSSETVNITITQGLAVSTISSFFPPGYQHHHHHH
T2 sequence (P08637 other isoform, or with tags, fused parts or gaps, form in doubt): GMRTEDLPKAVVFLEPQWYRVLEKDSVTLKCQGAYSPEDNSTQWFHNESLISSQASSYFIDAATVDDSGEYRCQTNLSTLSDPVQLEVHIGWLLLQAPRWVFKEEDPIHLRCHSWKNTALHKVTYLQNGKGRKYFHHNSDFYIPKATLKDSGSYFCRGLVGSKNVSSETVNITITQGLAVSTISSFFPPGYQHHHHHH

ratio of binding, variant/native IgG1 (mean) [1] [ratio] | ratio of binding, variant/native IgG1 (mean) [2] [ratio] | ratio of binding, variant/native IgG1 (mean) [3] [ratio] | ratio of binding, variant/native IgG1 (mean) [4] [ratio] | Binder
3.59 | 0.96 | 1.38 | 1.05 | anti-IgE E27 IgG1 variant K334(353)L (antibody, Fc variant of E27; also called IG2 221) heavy: not shown light: DIQLTQSPSSLSASVGDRVTITCRASKPVDGEGDSYLNWYQQKPGKAPKLLIYAASYLESGVPSRFSGSGSGTDFTLTISSLQPEDFATYYCQQSHEDPYTFGQGTKVEIKRTVAAPSVFIFPPSDEQLKSGTASVVCLLNNFYPREAKVQWKVDNALQSGNSQESVTEQDSKDSTYSLSSTLTLSKADYEKHKVYACEVTHQGLSSPVTKSFNRGEC
0.75 | 0.96 | 0.89 | 0.41 | anti-IgE E27 IgG1 variant S298(317)T (antibody, Fc variant of E27; also called IG2 71; Ser298Thr) heavy: not shown light: DIQLTQSPSSLSASVGDRVTITCRASKPVDGEGDSYLNWYQQKPGKAPKLLIYAASYLESGVPSRFSGSGSGTDFTLTISSLQPEDFATYYCQQSHEDPYTFGQGTKVEIKRTVAAPSVFIFPPSDEQLKSGTASVVCLLNNFYPREAKVQWKVDNALQSGNSQESVTEQDSKDSTYSLSSTLTLSKADYEKHKVYACEVTHQGLSSPVTKSFNRGEC
0.67 | 0.83 | 0.34 | 1.14 | anti-IgE E27 IgG1 variant S298(317)L (antibody, Fc variant of E27) heavy: not shown light: DIQLTQSPSSLSASVGDRVTITCRASKPVDGEGDSYLNWYQQKPGKAPKLLIYAASYLESGVPSRFSGSGSGTDFTLTISSLQPEDFATYYCQQSHEDPYTFGQGTKVEIKRTVAAPSVFIFPPSDEQLKSGTASVVCLLNNFYPREAKVQWKVDNALQSGNSQESVTEQDSKDSTYSLSSTLTLSKADYEKHKVYACEVTHQGLSSPVTKSFNRGEC
1.53 | 0.96 | 1.07 | 0.94 | anti-IgE E27 IgG1 variant K334(353)W (antibody, Fc variant of E27) heavy: not shown light: DIQLTQSPSSLSASVGDRVTITCRASKPVDGEGDSYLNWYQQKPGKAPKLLIYAASYLESGVPSRFSGSGSGTDFTLTISSLQPEDFATYYCQQSHEDPYTFGQGTKVEIKRTVAAPSVFIFPPSDEQLKSGTASVVCLLNNFYPREAKVQWKVDNALQSGNSQESVTEQDSKDSTYSLSSTLTLSKADYEKHKVYACEVTHQGLSSPVTKSFNRGEC
2.08 | 0.99 | 1.35 | 1.06 | anti-IgE E27 IgG1 variant K334(353)M (antibody, Fc variant of E27; also called IG2 190) heavy: not shown light: DIQLTQSPSSLSASVGDRVTITCRASKPVDGEGDSYLNWYQQKPGKAPKLLIYAASYLESGVPSRFSGSGSGTDFTLTISSLQPEDFATYYCQQSHEDPYTFGQGTKVEIKRTVAAPSVFIFPPSDEQLKSGTASVVCLLNNFYPREAKVQWKVDNALQSGNSQESVTEQDSKDSTYSLSSTLTLSKADYEKHKVYACEVTHQGLSSPVTKSFNRGEC
1.88 | 0.88 | 0.46 | 0.87 | anti-IgE E27 IgG1 variant S298(317)G (antibody, Fc variant of E27; also called IG2 70) heavy: not shown light: DIQLTQSPSSLSASVGDRVTITCRASKPVDGEGDSYLNWYQQKPGKAPKLLIYAASYLESGVPSRFSGSGSGTDFTLTISSLQPEDFATYYCQQSHEDPYTFGQGTKVEIKRTVAAPSVFIFPPSDEQLKSGTASVVCLLNNFYPREAKVQWKVDNALQSGNSQESVTEQDSKDSTYSLSSTLTLSKADYEKHKVYACEVTHQGLSSPVTKSFNRGEC
1.2 | 0.97 | 1.32 | 1.41 | anti-IgE E27 IgG1 variant T256(269)A (antibody, Fc variant of E27; also called IG2 11; Thr256Ala) heavy: not shown light: DIQLTQSPSSLSASVGDRVTITCRASKPVDGEGDSYLNWYQQKPGKAPKLLIYAASYLESGVPSRFSGSGSGTDFTLTISSLQPEDFATYYCQQSHEDPYTFGQGTKVEIKRTVAAPSVFIFPPSDEQLKSGTASVVCLLNNFYPREAKVQWKVDNALQSGNSQESVTEQDSKDSTYSLSSTLTLSKADYEKHKVYACEVTHQGLSSPVTKSFNRGEC
1.72 | 0.98 | 1.31 | 1.08 | anti-IgE E27 IgG1 variant K334(353)Y (antibody, Fc variant of E27) heavy: not shown light: DIQLTQSPSSLSASVGDRVTITCRASKPVDGEGDSYLNWYQQKPGKAPKLLIYAASYLESGVPSRFSGSGSGTDFTLTISSLQPEDFATYYCQQSHEDPYTFGQGTKVEIKRTVAAPSVFIFPPSDEQLKSGTASVVCLLNNFYPREAKVQWKVDNALQSGNSQESVTEQDSKDSTYSLSSTLTLSKADYEKHKVYACEVTHQGLSSPVTKSFNRGEC
1.7 | 1.19 | 1.15 | 1.16 | anti-IgE E27 IgG1 variant K334(353)N (antibody, Fc variant of E27) heavy: not shown light: DIQLTQSPSSLSASVGDRVTITCRASKPVDGEGDSYLNWYQQKPGKAPKLLIYAASYLESGVPSRFSGSGSGTDFTLTISSLQPEDFATYYCQQSHEDPYTFGQGTKVEIKRTVAAPSVFIFPPSDEQLKSGTASVVCLLNNFYPREAKVQWKVDNALQSGNSQESVTEQDSKDSTYSLSSTLTLSKADYEKHKVYACEVTHQGLSSPVTKSFNRGEC
0.17 | 0.66 | 0.06 | 0.08 | anti-IgE E27 IgG1 variant S298(317)N (antibody, Fc variant of E27; also called IG2 72; Ser298Asn) heavy: not shown light: DIQLTQSPSSLSASVGDRVTITCRASKPVDGEGDSYLNWYQQKPGKAPKLLIYAASYLESGVPSRFSGSGSGTDFTLTISSLQPEDFATYYCQQSHEDPYTFGQGTKVEIKRTVAAPSVFIFPPSDEQLKSGTASVVCLLNNFYPREAKVQWKVDNALQSGNSQESVTEQDSKDSTYSLSSTLTLSKADYEKHKVYACEVTHQGLSSPVTKSFNRGEC
1.96 | 1.02 | 1.3 | 0.4 | anti-IgE E27 IgG1 variant S298(317)A (antibody, Fc variant of E27; also called IG2 36; G36) heavy: not shown light: DIQLTQSPSSLSASVGDRVTITCRASKPVDGEGDSYLNWYQQKPGKAPKLLIYAASYLESGVPSRFSGSGSGTDFTLTISSLQPEDFATYYCQQSHEDPYTFGQGTKVEIKRTVAAPSVFIFPPSDEQLKSGTASVVCLLNNFYPREAKVQWKVDNALQSGNSQESVTEQDSKDSTYSLSSTLTLSKADYEKHKVYACEVTHQGLSSPVTKSFNRGEC
1.82 | 1.25 | 1.19 | 1.01 | anti-IgE E27 IgG1 variant K334(353)S (antibody, Fc variant of E27) heavy: not shown light: DIQLTQSPSSLSASVGDRVTITCRASKPVDGEGDSYLNWYQQKPGKAPKLLIYAASYLESGVPSRFSGSGSGTDFTLTISSLQPEDFATYYCQQSHEDPYTFGQGTKVEIKRTVAAPSVFIFPPSDEQLKSGTASVVCLLNNFYPREAKVQWKVDNALQSGNSQESVTEQDSKDSTYSLSSTLTLSKADYEKHKVYACEVTHQGLSSPVTKSFNRGEC
0.78 | 0.96 | 1.03 | 1.29 | anti-IgE E27 IgG1 variant P331(350)A (antibody, Fc variant of E27; also called IG2 65; Pro331Ala) heavy: not shown light: DIQLTQSPSSLSASVGDRVTITCRASKPVDGEGDSYLNWYQQKPGKAPKLLIYAASYLESGVPSRFSGSGSGTDFTLTISSLQPEDFATYYCQQSHEDPYTFGQGTKVEIKRTVAAPSVFIFPPSDEQLKSGTASVVCLLNNFYPREAKVQWKVDNALQSGNSQESVTEQDSKDSTYSLSSTLTLSKADYEKHKVYACEVTHQGLSSPVTKSFNRGEC
2.89 | 1 | 1.34 | 1.13 | anti-IgE E27 IgG1 variant K334(353)V (antibody, Fc variant of E27; also called IG2 220) heavy: not shown light: DIQLTQSPSSLSASVGDRVTITCRASKPVDGEGDSYLNWYQQKPGKAPKLLIYAASYLESGVPSRFSGSGSGTDFTLTISSLQPEDFATYYCQQSHEDPYTFGQGTKVEIKRTVAAPSVFIFPPSDEQLKSGTASVVCLLNNFYPREAKVQWKVDNALQSGNSQESVTEQDSKDSTYSLSSTLTLSKADYEKHKVYACEVTHQGLSSPVTKSFNRGEC
1.92 | 1.27 | 1.31 | 1.08 | anti-IgE E27 IgG1 variant K334(353)Q (antibody, Fc variant of E27) heavy: not shown light: DIQLTQSPSSLSASVGDRVTITCRASKPVDGEGDSYLNWYQQKPGKAPKLLIYAASYLESGVPSRFSGSGSGTDFTLTISSLQPEDFATYYCQQSHEDPYTFGQGTKVEIKRTVAAPSVFIFPPSDEQLKSGTASVVCLLNNFYPREAKVQWKVDNALQSGNSQESVTEQDSKDSTYSLSSTLTLSKADYEKHKVYACEVTHQGLSSPVTKSFNRGEC
